In US20210115146A1:

Legend:
[1] = target: Macaca fascicularis EGFR (cell surface) (Macaca fascicularis); test: FACS binding to W562.CHOK1.cPro1.H6 cells (monkey EGFR), upper panel and table
[2] = target: mouse EGFR (cell surface) (mouse) (UniProt Q01279); test: FACS binding to W562-CHO-K1.mPro1.F3 cells (mouse EGFR), lower panel and table
[3] = target: Macaca fascicularis EGFR (cell surface) (Macaca fascicularis); test: FACS binding to W562-CHO-K1.cPro1.H6 cells (monkey EGFR), lower panel and table
[4] = target: mouse EGFR (cell surface) (mouse) (UniProt Q01279); test: FACS binding to W562-CHO-K1.mPro1.F3 cells (mouse EGFR), lower panel and table; the curve is still rising at 100 nM
[5] = target: mouse EGFR (cell surface) (mouse) (UniProt Q01279); test: FACS binding to mouse EGFR cells; the table head prints W562.CHOK1.cPro1.H6

B1: W562-BMK3 (antibody, from another filing, human IgG1, V domains shown)
VH: QVQLQESGPGLVKPSETLSLTCTVSGLSLASNSVSWIRQPPGKGLEWMGVIWNHGGTDYNPSIKSRLSISRDTSKSQVFLKMNSLTAADTAMYFCVRKGGIYFDYWGQGVLVTVSS
VL: DTVLTQSPSLAVSPGERATISCRASESVSTLMHWYQQKPGQQPKLLIYLASHRESGVPARFSGSGSGTDFTLTIDPMEAEDTATYYCQQSRNDPWTFGQGTKLELKR
[1]
  EC50: 1.47 nM
  Top MFI: 37500 MFI
[2]
  TOP MFI: 32800 MFI
[3]
  EC50: 1.24 nM
  TOP MFI: 16000 MFI
[4]
  EC50: 6.41 nM
[5]
  EC50: 2.42 nM
  Top MFI: 31000 MFI
